Assay results published in patent US20250197820A1, “NUCLEIC ACID POLYMERASE AND ITS USE IN PRODUCING NON-DNA NUCLEOTIDE POLYMERS” (UNITED KINGDOM RESEARCH AND INNOVATION, priority 2021, published 2025).

B1: TGLLK: Tgo: V93Q, D141A, E143A, Y409G, A485L, I521L, F545L, E664K; previously described parent polymerase (protein, UniProt P56689 1-773, looked up, variant V93Q D141A E143A Y409G A485L I521L F545L E664K)
DNA polymerase: MILDTDYITEDGKPVIRIFKKENGEFKIDYDRNFEPYIYALLKDDSAIEDVKKITAERHGTTVRVVRAEKVKKKFLGRPIEVWKLYFTHPQDQPAIRDKIKEHPAVVDIYEYDIPFAKRYLIDKGLIPMEGDEELKMLAFAIATLYHEGEEFAEGPILMISYADEEGARVITWKNIDLPYVDVVSTEKEMIKRFLKVVKEKDPDVLITYNGDNFDFAYLKKRSEKLGVKFILGREGSEPKIQRMGDRFAVEVKGRIHFDLYPVIRRTINLPTYTLEAVYEAIFGQPKEKVYAEEIAQAWETGEGLERVARYSMEDAKVTYELGKEFFPMEAQLSRLVGQSLWDVSRSSTGNLVEWFLLRKAYERNELAPNKPDERELARRRESYAGGYVKEPERGLWENIVYLDFRSLGPSIIITHNVSPDTLNREGCEEYDVAPQVGHKFCKDFPGFIPSLLGDLLEERQKVKKKMKATIDPIEKKLLDYRQRLIKILANSFYGYYGYAKARWYCKECAESVTAWGRQYLETTIREIEEKFGFKVLYADTDGFLATIPGADAETVKKKAKEFLDYINAKLPGLLELEYEGFYKRGFFVTKKKYAVIDEEDKITTRGLEIVRRDWSEIAKETQARVLEAILKHGDVEEAVRIVKEVTEKLSKYEVPPEKLVIYKQITRDLKDYKATGPHVAVAKRLAARGIKIRPGTVISYIVLKGSGRIGDRAIPFDEFDPAKHKYDAEYYIENQVLPAVERILRAFGYRKEDLRYQKTRQVGLGAWLKPKT
B2: 3M: Tgo polymerase as 2M but with E664R (SEQ ID NO: 4) (protein)
chain: MILDTDYITEDGKPVIRIFKKENGEFKIDYDRNFEPYIYALLKDDSAIEDVKKITAERHGTTVRVVRAEKVKKKFLGRPIEVWKLYFTHPQDQPAIRDKIKEHPAVVDIYEYDIPFAKRYLIDKGLIPMEGDEELKMLAFAIATLYHEGEEFAEGPILMISYADEEGARVITWKNIDLPYVDVVSTEKEMIKRFLKVVKEKDPDVLITYNGDNFDFAYLKKRSEKLGVKFILGREGSEPKIQRMGDRFAVEVKGRIHFDLYPVIRRTINLPTYTLEAVYEAIFGQPKEKVYAEEIAQAWETGEGLERVARYSMEDAKVTYELGKEFFPMEAQLSRLVGQSLWDVSRSSTGNLVEWFLLRKAYERNELAPNKPDERELARRRESYAGGYVKEPERGLWENIVYLDFRSLGPSIIITHNVSPDTLNREGCEEYDVAPQVGHKFCKDFPGFIPSLLGDLLEERQKVKKKMKATIDPIEKKLLDYRQRLIKILANSFYGYYGYAKARWYCKECAESVTAWGRQYLETTIREIEEKFGFKVLYADGDGFLATIPGADAETVKKKAKEFLDYINAKLPGLLELEYEGFYKRGFFVTKAKYAVIDEEDKITTRGLEIVRRDWSEIAKETQARVLEAILKHGDVEEAVRIVKEVTEKLSKYEVPPEKLVIYRQITRDLKDYKATGPHVAVAKRLAARGIKIRPGTVISYIVLKGSGRIGDRAIPFDEFDPAKHKYDAEYYIENQVLPAVERILRAFGYRKEDLRYQKTRQVGLGAWLKPKT
B3: 2M+D614N: 2M polymerase bearing the DGLNK mutation D614N (SEQ ID NO: 5) (protein)
chain: MILDTDYITEDGKPVIRIFKKENGEFKIDYDRNFEPYIYALLKDDSAIEDVKKITAERHGTTVRVVRAEKVKKKFLGRPIEVWKLYFTHPQDQPAIRDKIKEHPAVVDIYEYDIPFAKRYLIDKGLIPMEGDEELKMLAFAIATLYHEGEEFAEGPILMISYADEEGARVITWKNIDLPYVDVVSTEKEMIKRFLKVVKEKDPDVLITYNGDNFDFAYLKKRSEKLGVKFILGREGSEPKIQRMGDRFAVEVKGRIHFDLYPVIRRTINLPTYTLEAVYEAIFGQPKEKVYAEEIAQAWETGEGLERVARYSMEDAKVTYELGKEFFPMEAQLSRLVGQSLWDVSRSSTGNLVEWFLLRKAYERNELAPNKPDERELARRRESYAGGYVKEPERGLWENIVYLDFRSLGPSIIITHNVSPDTLNREGCEEYDVAPQVGHKFCKDFPGFIPSLLGDLLEERQKVKKKMKATIDPIEKKLLDYRQRLIKILANSFYGYYGYAKARWYCKECAESVTAWGRQYLETTIREIEEKFGFKVLYADGDGFLATIPGADAETVKKKAKEFLDYINAKLPGLLELEYEGFYKRGFFVTKAKYAVIDEEDKITTRGLEIVRRNWSEIAKETQARVLEAILKHGDVEEAVRIVKEVTEKLSKYEVPPEKLVIYKQITRDLKDYKATGPHVAVAKRLAARGIKIRPGTVISYIVLKGSGRIGDRAIPFDEFDPAKHKYDAEYYIENQVLPAVERILRAFGYRKEDLRYQKTRQVGLGAWLKPKT
B4: 2M: Tgo polymerase with V93Q, D141A, E143A, Y409G, A485L, I521L, T541G, F545L, K592A, E664K (SEQ ID NO: 3) (protein)
chain: MILDTDYITEDGKPVIRIFKKENGEFKIDYDRNFEPYIYALLKDDSAIEDVKKITAERHGTTVRVVRAEKVKKKFLGRPIEVWKLYFTHPQDQPAIRDKIKEHPAVVDIYEYDIPFAKRYLIDKGLIPMEGDEELKMLAFAIATLYHEGEEFAEGPILMISYADEEGARVITWKNIDLPYVDVVSTEKEMIKRFLKVVKEKDPDVLITYNGDNFDFAYLKKRSEKLGVKFILGREGSEPKIQRMGDRFAVEVKGRIHFDLYPVIRRTINLPTYTLEAVYEAIFGQPKEKVYAEEIAQAWETGEGLERVARYSMEDAKVTYELGKEFFPMEAQLSRLVGQSLWDVSRSSTGNLVEWFLLRKAYERNELAPNKPDERELARRRESYAGGYVKEPERGLWENIVYLDFRSLGPSIIITHNVSPDTLNREGCEEYDVAPQVGHKFCKDFPGFIPSLLGDLLEERQKVKKKMKATIDPIEKKLLDYRQRLIKILANSFYGYYGYAKARWYCKECAESVTAWGRQYLETTIREIEEKFGFKVLYADGDGFLATIPGADAETVKKKAKEFLDYINAKLPGLLELEYEGFYKRGFFVTKAKYAVIDEEDKITTRGLEIVRRDWSEIAKETQARVLEAILKHGDVEEAVRIVKEVTEKLSKYEVPPEKLVIYKQITRDLKDYKATGPHVAVAKRLAARGIKIRPGTVISYIVLKGSGRIGDRAIPFDEFDPAKHKYDAEYYIENQVLPAVERILRAFGYRKEDLRYQKTRQVGLGAWLKPKT

What was measured:
Format in all cases: biochemical
[1] = target: T1, 2M (Thermococcus gorgonarius, UniProt P56689, A485L/D141A/E143A/E664K/F545L/I521L/K592A/T541G/V93Q/Y409G); assay: Steady-state kinetics of single nucleotide incorporation by 2M; conditions: single nucleotide incorporation from 2′OMe-RNA primer; for improvement of KM value compared to ATP: 50° C.
T1 construct: made in house; host or cells: E. coli BL21 CodonPlus-RIL
Experimental: Steady-state kinetic parameters for NTP incorporation by 2M were determined by performing initial velocity measurements of single incorporations of either ATP, 2′OMe-ATP, or MOE-ATP. To generate the 2′OMe-RNA/DNA substrate, a 20-mer 2′OMe-RNA primer FD was 5′ 6-carboxyfluorescein end-labeled and annealed to the 52-mer DNA template BFL770 (Supplementary Table 1) at a 1:1.2 molar ratio. The reactions were performed at 50° C. in a mixture containing 1× Thermopol buffer, 6 mM Mg^2+, 100 nM 2′OMe-RNA/DNA substrate, and at NTP concentrations ranging from 0.5-250 μM. Enzyme concentrations and reaction times were selected to maintain initial velocity conditions. The 25 μL reactions were stopped by addition of a quenching solution containing 100 mM EDTA, 80% deionized formamide, 0.25 mg/ml bromophenol blue and 0.25 mg/ml xylene cyanol. Moreover, less than 20% of the primers were extended as required for steady-state conditions.
Product and substrate were separated on a 22% denaturing (8 M urea) polyacrylamide gel. The resulting bands were quantified using a Cytiva Typhoon RGB imager in fluorescence mode. Steady-state kinetic parameters (KM, kcat) were determined by fitting the data to the Michaelis-Menten equation. The data are the means and standard error from three independent experiments.

[2] = test system: random N40 template Tag3.3-N40-Test2; assay: Primer extension on random N40 template (denaturing PAGE, densitometry)
Experimental: (§1) Analytical primer extension reactions were carried out in 1× Thermopol buffer (NEB) supplemented with MgSO4 (4 mM). Primer (100 nM) was extended on a template (200 nM) with appropriate nucleoside triphosphates (125-250 μM each) by purified polymerase (10-100 μg/mL) in a 10-μL reaction volume. Reactions were carried out at 65° C. Primer extension products were analysed via urea-PAGE. All extensions with MOE-NTPs on defined-sequence template TempNpure required post-synthesis template capture with a ten-fold excess of antisense template, Turbo DNase (Invitrogen) treatment, subsequent Proteinase K (NEB) treatment, and loading on the urea-PAGE gel with a ten-fold excess of antisense template. Primer extensions with MOE-NTPs on template sfGFP required polymerase concentrations of 500 μg/mL.

[3] = test system: template TempNpure; assay: Primer extension on defined-sequence template (denaturing PAGE)
Experimental: as §1

[4] = test system: template sfGFP; assay: Long-range synthesis of a GFP transcript; conditions: 2′OMe-RNA primer Synth-out1mm
Experimental: as §1

[5] = FIG. 1g, RNA/2′OMe-RNA primer A-Test2, full length +79 nt
[6] = FIG. 3e, 2′OMe-RNA primer A-Test2, full length +79 nt

| Molecule | Vmax/kcat values for incorporation [1] | improvement of KM value compared to ATP [1] | densitometry of N40 synthesis yield, 2′OMe-RNA [2, 5] [%] | densitometry of N40 synthesis yield, 2′OMe-RNA [2, 6] [%] | densitometry of N40 synthesis yield, MOE-RNA [2, 6] [%] | 2′OMe-RNA synthesis activity (in words) ([3]; denaturing PAGE) | other results |
| --- | --- | --- | --- | --- | --- | --- | --- |
| COCCOC1C(O)C(COP(=O)(O)OP(=O)(O)OP(=O)(O)O)OC1n1cnc2c(N)ncnc21 (stereo not shown) [MOE-ATP] | essentially identical | approximately 5 fold |  |  |  |  |  |
| CO[C@@H]1[C@H](O)[C@@H](COP(=O)(O)OP(=O)(O)OP(=O)(O)O)O[C@H]1n1cnc2c(N)ncnc21 [2′OMe-ATP] | essentially identical | approximately 5 fold |  |  |  |  |  |
| B1 |  |  | 0 | 1 | 0 | comparatively inefficient |  |
| B2 |  |  |  |  |  | virtually identical synthesis activity |  |
| B3 |  |  |  |  |  | small enhancement |  |
| B4 |  |  | 90 | 84 | 65 | striking increase in 2′OMe-RNA synthesis activity | long-range 2′OMe-RNA synthesis length [4]: 750 nt; long-range MOE-RNA synthesis length [4]: 750 nt; time to reach full length synthesis (+79 nt), 2′OMe-RNA ([2]; 2′OMe-RNA primer FD-Test2): < 10 min; time to reach full length synthesis (+79 nt), DNA ([2]; 2′OMe-RNA primer FD-Test2): < 1 min; time to reach full length synthesis (+79 nt), MOE-RNA ([2]; 2′OMe-RNA primer FD-Test2): < 30 min; time to reach full length synthesis (+72 nt), 2′OMe-RNA ([3]; 2′OMe-RNA primer FD): < 5 min; time to reach full length synthesis (+72 nt), MOE-RNA ([3]; 2′OMe-RNA primer FD): < 20 min; MOE-RNA synthesis (in words) ([3]; denaturing PAGE): able to efficiently synthesize MOE-RNA |
